This note sets out measurements from patent US10500249B2, “Compositions and methods for preventing or treating diseases, conditions, or processes characterized by aberrant fibroblast proliferation and extracellular matrix deposition” (MOERAE MATRIX, INC., priority 2014, dated 2019).

Holding throughout (assay): Kinase Profiling Assay
What all share (type): biochemical
Common to all, as to details: 100 μM

For one assay, the target named is T1, CHK1 (h) (Homo sapiens, UniProt O14757).
T1 construct: purchased Millipore
T1 sequence (O14757 1-476): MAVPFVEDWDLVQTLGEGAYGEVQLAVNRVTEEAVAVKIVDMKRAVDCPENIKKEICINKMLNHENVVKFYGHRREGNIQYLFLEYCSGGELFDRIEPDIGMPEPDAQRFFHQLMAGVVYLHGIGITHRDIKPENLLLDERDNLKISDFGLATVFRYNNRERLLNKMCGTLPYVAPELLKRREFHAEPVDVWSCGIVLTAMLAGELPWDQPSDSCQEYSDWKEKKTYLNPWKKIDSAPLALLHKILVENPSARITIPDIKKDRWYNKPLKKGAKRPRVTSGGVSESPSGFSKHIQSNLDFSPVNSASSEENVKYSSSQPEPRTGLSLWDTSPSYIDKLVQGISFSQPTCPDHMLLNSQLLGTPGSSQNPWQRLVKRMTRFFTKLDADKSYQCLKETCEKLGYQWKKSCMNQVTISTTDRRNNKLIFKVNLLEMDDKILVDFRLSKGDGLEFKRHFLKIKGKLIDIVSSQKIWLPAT
The method, boiled down: (§1)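 Measured twice per kinase, activity in presence of MK2 inhibitory peptide was calculated against a 100% activity control after radiometric phosphorylation of a cationic substrate, anionic filter capture and scintillation counting; one of 266 human kinases profiled for specificity.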

A further assay concerns the target T2, MST3 (h) (Homo sapiens, UniProt Q9Y6E0).
T2 construct: purchased Millipore
The method, boiled down: as §1

The target of the next assay is T3, MKK6 (h) (Homo sapiens, UniProt P52564).
T3 construct: purchased Millipore
T3 sequence (P52564 1-334): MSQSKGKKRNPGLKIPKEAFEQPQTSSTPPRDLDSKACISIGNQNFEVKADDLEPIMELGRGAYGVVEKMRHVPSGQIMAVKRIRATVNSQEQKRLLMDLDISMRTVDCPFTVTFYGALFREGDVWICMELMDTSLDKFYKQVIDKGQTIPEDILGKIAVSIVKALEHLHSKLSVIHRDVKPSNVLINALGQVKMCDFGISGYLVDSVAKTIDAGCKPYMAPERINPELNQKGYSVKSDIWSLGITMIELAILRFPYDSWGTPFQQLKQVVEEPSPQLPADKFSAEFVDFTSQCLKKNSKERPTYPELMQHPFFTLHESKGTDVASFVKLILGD
The method, boiled down:
as §1

The target in another assay is T4, GRK6 (h) (Homo sapiens, UniProt P43250).
T4 construct: purchased Millipore
The method, boiled down:
as §1

For another assay, the target named is Rsk1 (h) (Homo sapiens, UniProt Q15418). A digest of the protocol: as §1
The next assay has as its target T5, EphB2 (h) (Homo sapiens, UniProt P29323).
T5 sequence (P29323 19-1055): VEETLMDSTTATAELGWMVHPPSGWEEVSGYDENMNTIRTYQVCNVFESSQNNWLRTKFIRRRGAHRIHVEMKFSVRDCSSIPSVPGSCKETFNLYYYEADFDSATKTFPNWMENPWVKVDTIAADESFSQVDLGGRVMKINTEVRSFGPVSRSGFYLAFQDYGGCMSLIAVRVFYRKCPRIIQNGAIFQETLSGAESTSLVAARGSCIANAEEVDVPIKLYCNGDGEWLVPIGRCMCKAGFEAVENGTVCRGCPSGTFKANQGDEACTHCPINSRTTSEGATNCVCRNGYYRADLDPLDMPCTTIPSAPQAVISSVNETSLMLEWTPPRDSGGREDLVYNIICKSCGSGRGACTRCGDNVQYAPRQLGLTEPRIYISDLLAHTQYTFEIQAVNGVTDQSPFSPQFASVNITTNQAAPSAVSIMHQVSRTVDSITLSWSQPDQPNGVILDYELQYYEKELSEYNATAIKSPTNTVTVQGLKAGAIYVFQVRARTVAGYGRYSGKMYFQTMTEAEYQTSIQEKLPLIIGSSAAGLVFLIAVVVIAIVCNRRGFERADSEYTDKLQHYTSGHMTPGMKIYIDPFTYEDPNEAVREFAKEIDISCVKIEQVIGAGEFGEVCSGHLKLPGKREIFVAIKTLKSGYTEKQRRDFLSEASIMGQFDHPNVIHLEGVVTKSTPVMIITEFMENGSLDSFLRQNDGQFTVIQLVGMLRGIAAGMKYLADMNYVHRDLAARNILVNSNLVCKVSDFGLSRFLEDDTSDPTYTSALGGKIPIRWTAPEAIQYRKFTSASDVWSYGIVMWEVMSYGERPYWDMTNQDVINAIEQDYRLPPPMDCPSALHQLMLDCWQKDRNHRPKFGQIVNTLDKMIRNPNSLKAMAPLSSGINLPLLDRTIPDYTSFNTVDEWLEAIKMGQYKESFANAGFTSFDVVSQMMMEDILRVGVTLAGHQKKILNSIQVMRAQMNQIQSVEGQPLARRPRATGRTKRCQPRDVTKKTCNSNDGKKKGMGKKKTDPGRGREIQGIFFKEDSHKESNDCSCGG
A digest of the protocol: as §1

For a further assay, the target named is T6, MST2 (h) (Homo sapiens, UniProt Q13188).
T6 construct: purchased Millipore
T6 sequence (Q13188 1-491): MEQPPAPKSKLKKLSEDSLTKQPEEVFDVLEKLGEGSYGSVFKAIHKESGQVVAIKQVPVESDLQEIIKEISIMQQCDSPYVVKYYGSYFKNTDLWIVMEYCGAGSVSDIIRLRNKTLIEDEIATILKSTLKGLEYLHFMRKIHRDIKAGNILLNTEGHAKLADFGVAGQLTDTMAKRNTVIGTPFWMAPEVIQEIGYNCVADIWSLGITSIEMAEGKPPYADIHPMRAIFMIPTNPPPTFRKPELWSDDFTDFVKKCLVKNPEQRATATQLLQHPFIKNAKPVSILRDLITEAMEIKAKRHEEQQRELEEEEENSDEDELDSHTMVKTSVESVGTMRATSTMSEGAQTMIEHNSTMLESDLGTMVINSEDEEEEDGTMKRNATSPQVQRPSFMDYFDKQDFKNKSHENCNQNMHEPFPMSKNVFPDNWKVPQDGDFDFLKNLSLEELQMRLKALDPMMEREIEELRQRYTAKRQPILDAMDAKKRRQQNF
A digest of the protocol: as §1

Sequence of Rsk1 (h) (Q15418 whole entry): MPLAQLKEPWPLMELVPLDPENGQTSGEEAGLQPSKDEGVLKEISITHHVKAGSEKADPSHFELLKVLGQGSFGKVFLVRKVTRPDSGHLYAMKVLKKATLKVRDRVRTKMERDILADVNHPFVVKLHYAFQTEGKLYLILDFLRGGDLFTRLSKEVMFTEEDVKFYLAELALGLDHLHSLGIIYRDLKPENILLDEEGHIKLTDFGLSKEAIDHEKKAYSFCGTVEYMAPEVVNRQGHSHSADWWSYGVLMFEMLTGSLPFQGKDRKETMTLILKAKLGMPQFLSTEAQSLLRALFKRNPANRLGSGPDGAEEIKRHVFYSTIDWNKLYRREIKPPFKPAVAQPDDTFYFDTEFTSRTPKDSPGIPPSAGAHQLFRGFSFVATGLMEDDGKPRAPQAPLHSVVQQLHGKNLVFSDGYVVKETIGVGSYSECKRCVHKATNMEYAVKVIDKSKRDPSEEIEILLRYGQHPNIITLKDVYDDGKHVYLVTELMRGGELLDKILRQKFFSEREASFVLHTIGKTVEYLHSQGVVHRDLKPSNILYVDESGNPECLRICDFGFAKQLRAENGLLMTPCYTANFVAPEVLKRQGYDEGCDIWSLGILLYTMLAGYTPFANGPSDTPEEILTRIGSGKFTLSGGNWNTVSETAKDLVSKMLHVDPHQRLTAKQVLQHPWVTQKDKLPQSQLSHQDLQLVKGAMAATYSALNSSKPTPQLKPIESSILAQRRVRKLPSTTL
T4 sequence (P43250 whole entry): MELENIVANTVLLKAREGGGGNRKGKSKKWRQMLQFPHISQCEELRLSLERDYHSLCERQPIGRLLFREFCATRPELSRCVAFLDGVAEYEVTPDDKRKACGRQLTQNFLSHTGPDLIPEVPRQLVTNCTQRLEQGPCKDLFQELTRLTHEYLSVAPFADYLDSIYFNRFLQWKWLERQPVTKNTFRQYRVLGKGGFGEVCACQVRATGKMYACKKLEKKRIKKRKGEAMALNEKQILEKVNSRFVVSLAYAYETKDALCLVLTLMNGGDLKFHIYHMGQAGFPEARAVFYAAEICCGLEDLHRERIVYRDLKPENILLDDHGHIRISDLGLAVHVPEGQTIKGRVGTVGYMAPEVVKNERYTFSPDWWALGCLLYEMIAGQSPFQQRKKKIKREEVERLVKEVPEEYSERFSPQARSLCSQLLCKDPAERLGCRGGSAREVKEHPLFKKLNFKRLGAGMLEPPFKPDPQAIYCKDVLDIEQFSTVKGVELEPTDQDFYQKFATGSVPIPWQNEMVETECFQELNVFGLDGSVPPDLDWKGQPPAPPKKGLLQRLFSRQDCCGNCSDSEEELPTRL
T2 sequence (Q9Y6E0 whole entry): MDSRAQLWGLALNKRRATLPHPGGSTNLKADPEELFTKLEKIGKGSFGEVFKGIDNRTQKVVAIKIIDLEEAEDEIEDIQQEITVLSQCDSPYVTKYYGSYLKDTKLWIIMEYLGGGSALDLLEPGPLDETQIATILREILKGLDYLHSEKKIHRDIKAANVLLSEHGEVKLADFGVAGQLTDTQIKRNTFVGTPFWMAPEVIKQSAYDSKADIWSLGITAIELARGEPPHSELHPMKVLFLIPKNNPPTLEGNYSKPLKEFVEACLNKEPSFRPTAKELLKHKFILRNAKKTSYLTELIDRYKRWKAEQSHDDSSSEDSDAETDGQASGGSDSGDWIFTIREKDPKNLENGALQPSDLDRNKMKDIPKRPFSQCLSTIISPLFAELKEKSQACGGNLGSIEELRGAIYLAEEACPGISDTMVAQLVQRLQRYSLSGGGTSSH

As for FAKLAARLYRKALARQLGVAA [MMI-0300], the “% activity” value in the assay with CHK1 (h) amounted to 91%; in the assay with MST3 (h), 45%; in the assay with MKK6 (h), 48%; with GRK6 (h), 147%; with Rsk1 (h), 46%; with EphB2 (h) it was 18%. For the same sequence, the “% activity” value in the assay with MST2 (h) was determined as 19%.

For the sequence KAFAKLAARLYRKALARQLGVAA [MMI-0400], the “% activity” value with CHK1 (h) is 87%; in the assay with MST3 (h), 36%; with MKK6 (h), 44%; with GRK6 (h) it was 141%; in the assay with Rsk1 (h) it was 54%; with EphB2 (h), 22%. Moreover, the “% activity” value with MST2 (h) is recorded as 11%.

As to “YARAAARQARAKALNRQLGVA (Mammalian) [MMI-0200]”, the “% activity” value was determined as 95% with MST3 (h), 98% with MKK6 (h), 132% in the assay with GRK6 (h) and 128% with EphB2 (h).

Regarding “HRRIKAWLKKIKALARQLGVAA (Mammalian) [MMI-0500]”, the “% activity” value with CHK1 (h) came to 65%; with MST3 (h), 4%; with MKK6 (h) it was 18%; in the assay with GRK6 (h) it was 174%; in the assay with Rsk1 (h), 34%; with EphB2 (h), 70%. Further, the “% activity” value with MST2 (h) was 2%.
